Reference: US20200157212A1 (Pfizer, published 2020)
Residue numbers refer to the chain shown, from its start.

T1: Terbium (Tb) labeled-SNAP tagged ROBO2 expressed on HEK293 cells (Homo sapiens (Human), UniProt Q9HCK4 22-1378, terbium label on the SNAP tag)
T1 construct: also called Tb-labeled ROBO2 cells; ROBO2 expressing cells; not shown: SNAP tag
T1 sequence: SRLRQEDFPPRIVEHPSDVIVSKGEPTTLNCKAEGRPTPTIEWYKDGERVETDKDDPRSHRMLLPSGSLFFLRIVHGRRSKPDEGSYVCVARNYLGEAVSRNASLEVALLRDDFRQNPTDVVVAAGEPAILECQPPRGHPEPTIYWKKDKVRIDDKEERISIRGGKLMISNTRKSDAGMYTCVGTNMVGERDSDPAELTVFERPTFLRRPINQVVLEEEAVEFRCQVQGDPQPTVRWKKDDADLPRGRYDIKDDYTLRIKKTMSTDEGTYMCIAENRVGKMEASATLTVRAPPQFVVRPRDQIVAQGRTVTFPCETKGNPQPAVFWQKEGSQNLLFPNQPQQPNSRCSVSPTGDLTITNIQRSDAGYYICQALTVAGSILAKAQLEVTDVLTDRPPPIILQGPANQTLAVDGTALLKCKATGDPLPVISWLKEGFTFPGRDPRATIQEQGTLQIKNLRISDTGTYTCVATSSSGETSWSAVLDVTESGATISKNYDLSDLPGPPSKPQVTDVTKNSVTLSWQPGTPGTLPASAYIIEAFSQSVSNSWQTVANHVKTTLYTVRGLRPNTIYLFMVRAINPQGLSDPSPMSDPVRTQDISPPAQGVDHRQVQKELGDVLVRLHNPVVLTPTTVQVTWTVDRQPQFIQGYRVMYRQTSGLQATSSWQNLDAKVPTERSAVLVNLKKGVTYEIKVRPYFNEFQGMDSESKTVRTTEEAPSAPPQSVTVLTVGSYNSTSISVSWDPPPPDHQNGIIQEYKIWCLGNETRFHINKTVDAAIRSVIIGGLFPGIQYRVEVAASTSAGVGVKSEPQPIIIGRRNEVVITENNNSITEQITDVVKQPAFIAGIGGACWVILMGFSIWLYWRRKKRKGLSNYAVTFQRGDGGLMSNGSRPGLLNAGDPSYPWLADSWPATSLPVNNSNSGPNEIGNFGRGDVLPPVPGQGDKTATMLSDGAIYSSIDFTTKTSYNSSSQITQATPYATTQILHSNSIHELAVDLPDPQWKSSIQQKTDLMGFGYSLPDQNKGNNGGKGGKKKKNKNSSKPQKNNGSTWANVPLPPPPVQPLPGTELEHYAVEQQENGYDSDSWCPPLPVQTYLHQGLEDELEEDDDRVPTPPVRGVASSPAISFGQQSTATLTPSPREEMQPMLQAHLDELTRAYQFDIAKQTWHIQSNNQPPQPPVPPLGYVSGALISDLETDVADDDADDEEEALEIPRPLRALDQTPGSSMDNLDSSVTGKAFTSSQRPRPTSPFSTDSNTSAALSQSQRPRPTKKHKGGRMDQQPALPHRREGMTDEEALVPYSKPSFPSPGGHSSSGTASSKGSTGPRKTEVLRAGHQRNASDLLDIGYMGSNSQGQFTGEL

T2: Human ROBO2 overexpressed on HEK293 cells (human, UniProt Q9HCK4 22-1378)
T2 construct: also called ROBO2 cells; native ROBO2
T2 sequence: T1 sequence

B1: Ab22 (antibody, human IgG1, kappa, V domains shown)
VH: EVQLVQSGAEVKKPGASVKVSCKASGYTFTGYYMHWVRQAPGQGLEWMGWINPRSGATNFPQKFQGRVTMTRDTSITTAYMDLSRLRSDDTAVYYCARESGDDAFDIWGQGTMVTVSS
VL: DIVMTQSPSSLSASVGDRVTITCRASQSISSYLNWYQQKPGKAPKLLIYAASSLQYGVPSRFSGSGSGTDFTLTISSLQPEDFATYYCQQSYSTSFGGGTKVEIKR
notes: full-length human IgG
B2: Ab40 (antibody, human IgG1, kappa, V domains shown)
VH: B1 VH with R54N
VL: B1 VL with Y56S, Y92L, S93E, T94L, S95G
notes: full-length human IgG
B3: Ab46 (antibody, human IgG1, kappa, V domains shown)
VH: B1 VH with W50A, N52D, R54K, S55H, A57F, N59I
VL: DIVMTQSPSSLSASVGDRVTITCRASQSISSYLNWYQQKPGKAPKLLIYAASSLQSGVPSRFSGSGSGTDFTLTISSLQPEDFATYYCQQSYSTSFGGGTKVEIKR
notes: full-length human IgG
B4: Ab32 (antibody, human IgG1, kappa, V domains shown)
VH: B1 VH with W50A, N52D, R54K, S55L, A57I, N59I
VL: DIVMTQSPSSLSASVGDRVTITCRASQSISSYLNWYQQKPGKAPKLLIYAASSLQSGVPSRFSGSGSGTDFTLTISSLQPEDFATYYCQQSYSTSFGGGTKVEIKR
notes: full-length human IgG
B5: Ab58 (antibody, human IgG1, kappa, V domains shown)
VH: B1 VH with R54K, S55D, A57D, N59E
VL: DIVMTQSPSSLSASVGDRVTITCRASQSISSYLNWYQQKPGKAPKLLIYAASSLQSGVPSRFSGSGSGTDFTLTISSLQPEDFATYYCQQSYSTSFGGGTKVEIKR
notes: full-length human IgG
B6: Ab29 (antibody, human IgG1, kappa, V domains shown)
VH: B1 VH with W50A, N52D, R54K, A57T, N59M
VL: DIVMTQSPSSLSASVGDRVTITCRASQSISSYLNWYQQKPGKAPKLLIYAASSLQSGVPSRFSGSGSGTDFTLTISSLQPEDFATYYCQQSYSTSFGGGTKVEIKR
notes: full-length human IgG
B7: Ab112 (antibody, human IgG1, kappa, V domains shown)
VH: B1 VH with R54N
VL: B1 VL with Y56S, Y92V, S93G, T94L
notes: full-length human IgG
B8: Ab83 (antibody, human IgG1, kappa, V domains shown)
VH: B1 VH with S55N, A57I, N59S
VL: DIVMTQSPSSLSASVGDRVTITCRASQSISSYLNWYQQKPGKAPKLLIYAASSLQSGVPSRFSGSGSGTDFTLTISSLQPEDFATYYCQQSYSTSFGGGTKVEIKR
notes: full-length human IgG
B9: Ab1 (antibody, human IgG1, kappa, V domains shown)
VH: B1 VH with Y33D, R54N
VL: B1 VL with S28K, Y56S
notes: full-length human IgG
B10: Ab13 (antibody, human IgG1, kappa, V domains shown)
VH: B1 VH with Y33D, R54N
VL: B1 VL with Y56D
notes: full-length human IgG
B11: Ab21 (antibody, human IgG1, kappa, V domains shown)
VH: B1 VH with Y33D, R54N
VL: B1 VL
notes: full-length human IgG
B12: Ab9 (antibody, human IgG1, kappa, V domains shown)
VH: B1 VH with Y33D, R54N
VL: B1 VL with S28R, Y56S
notes: full-length human IgG
B13: Ab17 (antibody, human IgG1, kappa, V domains shown)
VH: B1 VH with Y33D, R54N
VL: B1 VL with Y56E
notes: full-length human IgG

What follows are binders tested against T1, Terbium (Tb) labeled-SNAP tagged ROBO2 … (assay: HTRF competition, competitor d2-SLIT2-N, ROBO2 HEK293 cells).
Protocol: (§1) Antibodies generated as a result of the affinity maturation campaign were screened by numerous assays for neutralization of SLIT2-N binding, selective binding to ROBO2 over ROBO1, and inhibition of SLIT2-N functional activity (see Table 2). A ROBO2-SLIT2-N homogenous time resolved fluorescence (HTRF) assay was used to identify antibodies that were capable of blocking SLIT2-N binding to ROBO2. In this assay, terbium (Tb) labeled-SNAP tagged ROBO2 expressing HEK293 cells were incubated with 5 nM d2-labeled SLIT-2N in the presence of 1 nM anti-ROBO2 antibodies for 1 hour. After incubation, fluorescence at 665 nm and 620 nm was measured on an Envision multilabel plate reader. […] Maximal signal was defined as the HTRF ratio of Tb-labeled ROBO2 cells with d2-labeled SLIT2-N in the absence of antibody, the minimum signal was defined as the HTRF ratio of Tb-labeled ROBO2 expressing HEK293 cells only. One nanomolar (nM) parental antibody, 93H2, was unable to block the HTRF assay, therefore this concentration was selected to identify clones with a higher affinity than 93H2 (Table 2, HTRF Ratio column). […] Antibodies derived from chain (Abcs series) or CDR shuffling (CTIR-2 series) were evaluated in 11-point, 5-fold dilution series with a top concentration of 1500 nM (Table 2 HTRF IC₅₀).

IC50 [nM]	Binder
0.229	B1
0.728	B2
0.109	B3
0.234	B4
0.282	B5
0.097	B6
0.174	B7
0.437	B8

Each binder was assayed against T2, Human ROBO2 overexpressed on HEK293 … (assay: flow cytometry, Geo MFI ROBO2/ROBO1 HEK293 cells, 0.1 µg/ml).
Protocol: (§2) Binding of the antibodies was detected using a secondary fluorochrome conjugated anti-human IgG F(ab′)₂ antibody and samples were analyzed on a Fortessa cytometer (BD Biosciences). The fold ROBO2 selectivity was calculated as the geometric mean fluorescence intensity (Geo MFI) with ROBO2 cells/Geo MFI with ROBO1 cells. A fold change higher than 3 was considered to be ROBO2 specific (Table 2, Fold Selectivity). Some affinity matured clones had increased ROBO1 reactivity, for example Abcs 55, CTI-R2-10 and CTIR2-13.
HTRF assays were run with 5 nM d2-labeled SLIT2-N and antibodies were added at 1 nM. […] Antibodies derived from chain (Abcs series) or CDR shuffling (CTIR-2 series) were evaluated in 11-point, 5-fold dilution series with a top concentration of 1500 nM, N.T. = not tested; ^cFold selectivity was calculated as Geometric Mean Fluorescent Intensity (Geo MFI) of ROBO2/Geo MFI of ROBO1 binding. […] Outcomes: results are listed in order of assays listed in the table (left to right), I.A. = Improved Affinity

Fold Selectivity for ROBO2/ROBO1 [fold]	Binder
67.4	B1
> 100	B2
> 100	B3
90.3	B4
21.8	B5
> 100	B6
39.2	B7
40.6	B8

Each binder was assayed against T1, Terbium (Tb) labeled-SNAP tagged ROBO2 … (assay: HTRF, 5 nM d2-SLIT2-N on Tb-SNAP-ROBO2 HEK293 cells, 1 nM antibody).
Protocol: as §1, with “In” for “Antibodies generated as a result of the affinity maturation campaign were screened by numerous assays for neutralization of SLIT2-N binding, selective binding to ROBO2 over ROBO1, and inhibition of SLIT2-N functional activity (see Table 2). A ROBO2-SLIT2-N homogenous time resolved fluorescence (HTRF) assay was used to identify antibodies that were capable of blocking SLIT2-N binding to ROBO2. In”
HTRF assays were run with 5 nM d2-labeled SLIT2-N and antibodies were added at 1 nM. […] Antibodies derived from chain (Abcs series) or CDR shuffling (CTIR-2 series) were evaluated in 11-point, 5-fold dilution series with a top concentration of 1500 nM, N.T. = not tested; ^cFold selectivity was calculated as Geometric Mean Fluorescent Intensity (Geo MFI) of ROBO2/Geo MFI of ROBO1 binding.

HTRF Ratio	Binder
14000	B9
13800	B10
5730	B1
7430	B2
5710	B3
6000	B4
13100	B11
5570	B5
13600	B12
7730	B6
7300	B7
4770	B8
13500	B13

Each binder was assayed against T2, Human ROBO2 overexpressed on HEK293 … (assay: flow cytometry on HEK293 cells overexpressing human ROBO2; N.B. = No binding to ROBO2).
Protocol: as §2, with “The parental 93H2 antibody was highly ROBO2 specific, therefore affinity matured antibodies with single point neutralizing activity were screened by flow cytometry to ensure ROBO2 selectivity had been maintained. […] Binding” for “Binding”
Table 2 is a summary of assays used to screen antibodies against ROBO1 and/or ROBO2 to identify an antibody that specifically recognized ROBO2 but not ROBO1 with high affinity. […] Full dose curves were performed in the same assay for select antibodies. Recognition of native, surface expressed protein and ROBO2 selectivity was evaluated by flow cytometry. […] Anything with a value of greater than 3 was deemed to be selective for ROBO2. Outcomes of the various screening assays conducted for each antibody are highlighted in the final column.

binding result	Binder
no binding (tested: 0.1 µg/ml)	B9
no binding (tested: 0.1 µg/ml)	B10
no binding (tested: 0.1 µg/ml)	B11
no binding (tested: 0.1 µg/ml)	B12
no binding (tested: 0.1 µg/ml)	B13
